Laboratory results reported in the supplement of paper PMC10567573.

B1: ZBED2 (parent)
chain: RAGHHPNQYATCRLCGRQVSRGPG
B2: SNX8 (parent)
chain: VVLKLFLSFSGSDVQNKLKESAQC

Variants of: B1
Test: protein stability index of a GFP-peptide fusion (GPS, HEK-293T) (PSI 1-6); higher = more stable
Settings: c terminus: a fixed tail appended
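Further: lentivirally expressed fusions sorted by FACS into six bins by GFP to DsRed ratio, PSI derived from sequencing read proportions per bin multiplied by bin number.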

Protein stability index: each site, then its substitutions
V19: E 1.7, I 1.37, H 3.82, K 3.86, Y 2.24, M 1.48, P 1.98, N 1.4, Q 2.48, S 1.65
H4: E 2.16, C 1.84, N 3.52, V 2.31, G 2.21
A2: L 2.19, N 2.11, H 1.78, D 2.08, Y 2.04, K 1.54, S 2.04, P 1.73, G 2.1, Q 1.4, I 2.15, F 2.36, E 2.33
P23: D 2.85, C 2.96, Y 1.54, Q 2.11, R 2.8, E 1.76, M 1.77, T 2.2
R1: M 1.79, L 1.78, K 1.68, D 2.57, T 2.07, Q 1.5, I 2.13, S 1.86, V 1.33
R21: E 2.45, L 2.03, H 2.04, Q 2.25, C 2.54, F 1.78, K 1.69, S 1.65, M 1.68, I 2.35
G3: S 1.57, K 2.66, V 1.64, C 4.01, H 1.25, T 2.19, M 2.52, L 2.27, I 1.55, W 3.31, Q 1.75
C15: V 2.2, A 1.4, H 1.93, I 1.95, G 2.6, S 2.34, K 3.16
P6: G 2.54, F 1.33, D 2.02, Y 1.02, S 1.72, R 1.83, I 1.45, N 1.72
R17: N 1.31, I 1.86, K 3.01, D 2.96, L 2.64, V 1.49, H 1.29
C12: D 2.88, S 3.52, H 2.49, F 1.81, A 3.19, Q 3.12, M 2.28, P 2.98, T 3.19, E 3.66, R 3.2, G 3.16
A10: D 1.79, Y 1.34, V 1.43, G 2.12, W 1.76, F 2.67, R 1.43, H 2.02, E 1.6, M 1.8, T 2.78
G16: S 2.2, N 2.51, W 3.77, D 1.78, H 1.9
H5: Q 2.16, L 1.86, D 3.27, A 2.48, C 1.93, E 3.69, I 2.27, T 1.37, Y 2.37
Y9: S 2.72, P 3.34, L 1.6, A 2.33, N 2.33, H 2.28, F 1.67
L14: V 1.07, R 2.39, C 2.79, S 1.57, P 1.82, Q 1.15, N 1.25, G 2.04, I 1.48
T11: N 1.97, E 2.84, S 1.5, Y 3.09, I 2.27, M 3.7, F 3.34, L 1.7
N7: Y 2.9, E 2.52, L 2.67, S 1.88, P 1.56, F 1.08, R 1.46, A 1.78
Q18: M 2.17, G 2.68, P 2.69, S 1.23, N 2.12, F 2.67, E 1, I 2.23
R13: T 2.4, S 2.79, H 1.59, K 2.1, Q 1.04, I 2.09, P 3.18, V 2.39, L 1.58, F 1.36, Y 2.42, E 1.9
G24: I 2.11, R 1.8, F 1.17, D 1.7, T 2.17, E 2.35, V 1.61, K 2.03, Y 1.57, L 2.07
S20: P 2.53, H 1.76, K 1.88, Q 2.21, V 2.08, L 2.29, T 1.91, G 1.78, F 1.79, D 1.93, N 1.79, R 2.26, M 2.4, C 2.49, I 1.48
Q8: F 2.11, E 3.47, G 1.86, M 1.23, I 1.57, K 2.78, H 1.9, N 1.68, D 3.31
G22: W 1.46, M 1.57, H 2.12, R 1.95, I 1.9, L 2.48, A 2.21, N 2.29, P 2.57, E 2.08, F 1.55, T 2.24

Variants of: B2
Test: as above
Settings: c terminus: a fixed tail appended

Protein stability index: each site, then its substitutions
L3: E 1.57, T 1.2, K 2.5, F 3.59
C24: H 2.17, P 3.78, V 2.91, F 4.02, S 3.35
A22: K 2.18, Y 1.93
S12: L 1.37, Q 3.23, W 3.39, I 2.62, K 3.15, Y 4.07, H 1.9, T 3.29, P 3.58
V14: S 4.53, D 2.3, A 2.43, H 1.59, T 2.53
F6: I 2.18, D 1.17, P 2.29, N 3.24, S 3.13, E 1.31
G11: L 3.09, C 1.74, R 3.97, V 3.28
K4: P 3.99
V2: N 1.11, M 2.57, L 2.09, P 2.19, A 3.41, W 3.59, S 2.79, K 3.26
V1: R 2.71, F 2.81, N 1.36, Q 4.24, I 3.61, S 3.54, P 1.85
S10: L 2.45, D 2.68, M 1.38, T 4.41, Y 2.26, R 2.08, N 2.75
L7: H 3.04, E 2.56, K 1.84, V 3.66, N 1.09, Q 1.63
L5: D 2.41, F 3.22, I 2.62, P 1.83, S 1.1
E20: D 3.55, F 3.18
F9: W 2.48, I 3.38, V 3.52, E 1.11, P 2.64, Q 4.89
Q15: M 4.13, T 3.35, Y 3.96, D 1.8, F 3.49
S21: N 2.55, D 1.56, F 1.88, M 2.03
L18: W 1.93, G 4.32, F 2.86, Q 4.56, M 4.11
K17: A 1.72, L 3.46
K19: F 2.79, P 3.75, I 2.23, N 2.76
N16: K 2.2, G 1.35, R 2.84, A 2.02, W 3.64, I 2.64
Q23: Y 2.52, A 3.04, L 3.31, T 2.48, R 2.8
S8: A 1.77, G 1.91, R 1.92
